Measurements from patent publication US20240301086A1 (APTEVO RESEARCH AND DEVELOPMENT, published 2024).

T1: Full-length cynomolgus monkey PSMA (TSC308), on cells (cynomolgus monkey, UniProt Q04609 1-750 (human entry))
T1 construct: also called cyno PSMA; CHOK1SV/cynoPSMA
T1 chain: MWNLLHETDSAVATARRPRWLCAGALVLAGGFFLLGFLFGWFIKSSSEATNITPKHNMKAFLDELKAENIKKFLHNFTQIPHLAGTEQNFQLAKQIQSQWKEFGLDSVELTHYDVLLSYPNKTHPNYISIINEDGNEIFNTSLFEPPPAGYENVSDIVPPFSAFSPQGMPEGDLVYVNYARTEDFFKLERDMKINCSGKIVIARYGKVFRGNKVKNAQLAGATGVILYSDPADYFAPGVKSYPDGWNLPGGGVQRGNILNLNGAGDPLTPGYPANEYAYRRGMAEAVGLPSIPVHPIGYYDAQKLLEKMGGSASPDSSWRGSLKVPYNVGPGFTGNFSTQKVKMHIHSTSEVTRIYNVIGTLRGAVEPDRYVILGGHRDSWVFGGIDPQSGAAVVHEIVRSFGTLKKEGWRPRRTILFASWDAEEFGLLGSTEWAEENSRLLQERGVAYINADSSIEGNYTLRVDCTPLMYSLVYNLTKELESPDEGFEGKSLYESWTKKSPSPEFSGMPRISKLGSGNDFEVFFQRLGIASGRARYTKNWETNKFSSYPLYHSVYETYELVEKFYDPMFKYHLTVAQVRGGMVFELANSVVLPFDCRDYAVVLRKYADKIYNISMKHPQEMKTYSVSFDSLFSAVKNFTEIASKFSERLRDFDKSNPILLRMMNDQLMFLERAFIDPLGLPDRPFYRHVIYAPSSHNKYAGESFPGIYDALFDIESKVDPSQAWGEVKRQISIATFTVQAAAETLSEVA


Legend:
[1] = molecular target: T2, Human PSMA ECD-AFH (TSC033), recombinant dimeric PSMA ECD (human, UniProt Q04609 44-750); assay: SPR (Biacore T200), scFv-Fc captured on anti-human IgG, dimeric PSMA ECD as analyte, 1:1 fit
T2 construct: SEC-purified dimer; also called HuPSMA-AFH; Avi-His-Human PSMA ECD
Protocol: Mouse anti-human IgG (GE, BR-1008-39) at 25 μg/ml in 10 mM sodium acetate pH 5.0 was immobilized at a density of ˜2,000-4,000 response units (RU) onto each flow cell of a CM5 research-grade sensor chip (GE) by standard amine coupling chemistry. Each anti-PSMA protein at approximately 40 nM in dPBS with 0.2% BSA buffer was captured in a flow cell with the immobilized anti-human IgG at a flow rate of […] for up to 30 seconds, leaving one flow cell surface unmodified as the reference. Using a multi-cycle kinetics mode, a buffer blank and […] different concentrations of ECD ranging from 1 nM to 243 nM were sequentially injected through each flow cell at 30 μL/min with association times varying from 300-600 seconds and dissociation times varying from 600-1200 seconds. Regeneration was achieved by injection of 3 M MgCl₂ at a flow rate of 30 μL/min for up to 40 seconds followed by dPBS with 0.2% BSA buffer stabilization for 1 min.
Sensorgrams obtained from kinetic SPR measurements were analyzed using the double subtraction method. The signal from the reference flow cell was subtracted from the analyte binding response obtained from flow cells with captured ligands. The buffer blank response was then subtracted from analyte binding responses and the final double-referenced data were analyzed with Biacore T200 Evaluation software (2.0, GE), globally fitting data to derive kinetic parameters. All sensorgrams were fitted using a simple one-to-one binding model.

[2] = molecular target: T1, Full-length cynomolgus monkey PSMA …; assay: cell binding on CHOK1SV/cynoPSMA transfectants, MSD electrochemiluminescence (ECL), SULFO-TAG goat anti-human IgG
Protocol: (§1) To measure the relative binding activity of humanized PSMA-binding domain variants, constructs were tested in cell binding assays on CHOK1SV cells transfected with human or cynomolgus PSMA. The generation of CHOK1SV/huPSMA cells was described earlier; CHOK1SV/cynoPSMA cells were generated using the same method. Bivalent PSMA-binding domains variants in scFv-Fc format (constructs PSMA01019, PSMA01020, PSMA01021, PSMA01023, PSMA01024 and PSMA01025) were tested in these assays.
(§2) Binding studies on CHOK1SV transfectants were performed in live cell-based ELISA using electrochemiluminescence (Meso Scale Discovery). CHOK1SV cells were washed and seeded at 50,000 cells/well in 1× Hank's Balanced Salt Solution (HBSS) on 96-well Multi-Array High Bind plates (Meso Scale Discovery) and incubated at 37° C. for one hour. Following a blocking step in PBS buffer with 20% FBS, serial dilutions of PSMA-binding constructs (from 0.002 to 100 nM) were added in PBS buffer with 10% FBS and incubated at room temperature for one hour. Plates were washed with PBS and the specific binding levels were detected by SULFO TAG-labeled goat anti-human IgG antibody (Meso Scale Discovery #R32AJ). Following an hour incubation and wash steps, 150 μL/well surfactant free 1× Read Buffer T were added and samples were analyzed on MSD Sector Imager (Meso Scale Discovery). Resulting electrochemiluminescence (ECL) values versus concentrations were plotted and nonlinear regression analysis to determine EC50 values was performed in GraphPad Prism 7® graphing and statistics software.

[3] = molecular target: T3, Full-length Human PSMA (TSC435), on cells (human, UniProt Q04609 1-750); assay: cell binding on CHOK1SV/humanPSMA transfectants, MSD electrochemiluminescence (ECL), SULFO-TAG goat anti-human IgG
T3 construct: also called CHOK1SV/huPSMA; PSMA on C4-2B, 22RV1, LNCaP, MDA-PCa-2b cells
Protocol: as §1, §2

T2 sequence (Q04609 other isoform, or with tags, fused parts or gaps): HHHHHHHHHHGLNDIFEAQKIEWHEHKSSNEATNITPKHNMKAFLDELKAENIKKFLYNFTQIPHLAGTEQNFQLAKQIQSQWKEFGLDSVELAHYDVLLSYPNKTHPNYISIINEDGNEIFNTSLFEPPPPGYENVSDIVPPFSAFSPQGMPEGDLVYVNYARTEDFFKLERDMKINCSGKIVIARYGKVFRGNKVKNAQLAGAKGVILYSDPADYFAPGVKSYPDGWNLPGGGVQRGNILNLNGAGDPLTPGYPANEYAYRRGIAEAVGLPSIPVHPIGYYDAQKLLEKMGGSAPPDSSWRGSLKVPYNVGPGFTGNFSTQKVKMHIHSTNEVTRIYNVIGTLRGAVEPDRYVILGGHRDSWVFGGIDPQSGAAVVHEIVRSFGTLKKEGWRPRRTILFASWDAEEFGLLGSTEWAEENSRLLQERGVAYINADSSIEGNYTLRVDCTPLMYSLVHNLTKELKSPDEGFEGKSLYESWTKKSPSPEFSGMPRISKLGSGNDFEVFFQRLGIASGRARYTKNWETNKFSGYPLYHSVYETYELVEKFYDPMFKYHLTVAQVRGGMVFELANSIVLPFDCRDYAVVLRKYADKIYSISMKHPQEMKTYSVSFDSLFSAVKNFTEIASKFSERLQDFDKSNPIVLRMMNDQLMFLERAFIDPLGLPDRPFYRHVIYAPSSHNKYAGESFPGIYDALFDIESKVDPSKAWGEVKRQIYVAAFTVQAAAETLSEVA

Kd [1]	koff [1]	kon [1]	EC50 [2]	EC50 [3]	Binder
40 nM	0.00018 s⁻¹	4500 M⁻¹ s⁻¹	5 nM	1 nM	PSMA01023 Anti PSMA scFv-Fc (Fc fusion, Monospecific, bivalent scFv-Fc, VL-VH; Contains germlining set G11) DIQMTQSPSTLSASVGDRVTITCRASKSISKYLAWYQQKPGKAPKLLIHSGSSLESGVPSRFSGSGSGTEFTLTISSLQPDDFATYYCQQHIEYPWTFGQGTKVEIKGGGGSGGGGSGGGGSGGGGSQVQLVQSGAEVKKPGASVKVSCKASGYTFTDYYMHWVRQAPGQGLEWMGYFNPYNDYTRYAQKFQGRVTMTRDTSTSTVYMELSSLRSEDTAVYYCARSDGYYDAMDYWGQGTTVTVSSSEPKSSDKTHTCPPCPAPEAAGAPSVFLFPPKPKDTLMISRTPEVTCVVVDVSHEDPEVKFNWYVDGVEVHNAKTKPREEQYNSTYRVVSVLTVLHQDWLNGKEYKCAVSNKALPAPIEKTISKAKGQPREPQVYTLPPSRDELTKNQVSLTCLVKGFYPSDIAVEWESNGQPENNYKTTPPVLDSDGSFFLYSKLTVDKSRWQQGNVFSCSVMHEALHNHYTQKSLSLSPGK
271 nM	0.011 s⁻¹	40000 M⁻¹ s⁻¹	10 nM	11 nM	PSMA01025 Anti-PSMA scFv-Fc (Fc fusion, Monospecific, bivalent scFv-Fc, VL-VH) DIQMTQSPSTLSASVGDRVTITCRASKSISKYLAWYQQKPGKAPKLLIHSGSSLESGVPSRFSGSGSGTEFTLTISSLQPDDFATYYCQQHIEYPWTFGQGTKVEIKGGGGSGGGGSGGGGSGGGGSQVQLVQSGAEVKKPGASVKVSCKASGYTFTDYYMHWVRQAPGQGLEWMGIFNPYNDYTSYAQKFQGRVTMTRDTSTSTVYMELSSLRSEDTAVYYCARSDGYYDAMDYWGQGTTVTVSSSEPKSSDKTHTCPPCPAPEAAGAPSVFLFPPKPKDTLMISRTPEVTCVVVDVSHEDPEVKFNWYVDGVEVHNAKTKPREEQYNSTYRVVSVLTVLHQDWLNGKEYKCAVSNKALPAPIEKTISKAKGQPREPQVYTLPPSRDELTKNQVSLTCLVKGFYPSDIAVEWESNGQPENNYKTTPPVLDSDGSFFLYSKLTVDKSRWQQGNVFSCSVMHEALHNHYTQKSLSLSPGK
18 nM	0.00017 s⁻¹	9400 M⁻¹ s⁻¹	6 nM	2 nM	PSMA01021 Anti-PSMA scFv-Fc (Fc fusion, Monospecific, bivalent scFv-Fc, VL-VH) DVQITQSPSTLSASVGDRVTITCRASKSISKYLAWYQQKPGKAPKLLIHSGSSLESGVPSRFSGSGSGTEFTLTISSLQPDDFATYYCQQHIEYPWTFGQGTKVEIKGGGGSGGGGSGGGGSGGGGSQVQLVQSGAEVKKPGASVKVSCKASGYTFTDYYMHWVRQAPGQGLEWMGYFNPYNDYTRYAQKFQGRVTMTRDTSISTAYMELSSLRSDDTAVYYCARSDGYYDAMDYWGQGTTVTVSSSEPKSSDKTHTCPPCPAPEAAGAPSVFLFPPKPKDTLMISRTPEVTCVVVDVSHEDPEVKFNWYVDGVEVHNAKTKPREEQYNSTYRVVSVLTVLHQDWLNGKEYKCAVSNKALPAPIEKTISKAKGQPREPQVYTLPPSRDELTKNQVSLTCLVKGFYPSDIAVEWESNGQPENNYKTTPPVLDSDGSFFLYSKLTVDKSRWQQGNVFSCSVMHEALHNHYTQKSLSLSPGK
299 nM	0.0026 s⁻¹	8500 M⁻¹ s⁻¹	9 nM	12 nM	PSMA01024 Anti-PSMA scFv-Fc (Fc fusion, Monospecific, bivalent scFv-Fc, VL-VH) DVQITQSPSTLSASVGDRVTITCRASKSISKYLAWYQQKPGKAPKLLIHSGSSLESGVPSRFSGSGSGTEFTLTISSLQPDDFATYYCQQHIEYPWTFGQGTKVEIKGGGGSGGGGSGGGGSGGGGSQVQLVQSGAEVKKPGASVKVSCKASGYTFTDYYMHWVRQAPGQGLEWMGIFNPYNDYTSYAQKFQGRVTMTRDTSTSTVYMELSSLRSEDTAVYYCARSDGYYDAMDYWGQGTTVTVSSSEPKSSDKTHTCPPCPAPEAAGAPSVFLFPPKPKDTLMISRTPEVTCVVVDVSHEDPEVKFNWYVDGVEVHNAKTKPREEQYNSTYRVVSVLTVLHQDWLNGKEYKCAVSNKALPAPIEKTISKAKGQPREPQVYTLPPSRDELTKNQVSLTCLVKGFYPSDIAVEWESNGQPENNYKTTPPVLDSDGSFFLYSKLTVDKSRWQQGNVFSCSVMHEALHNHYTQKSLSLSPGK
15 nM	0.00019 s⁻¹	13000 M⁻¹ s⁻¹	8 nM	4 nM	PSMA01019 Anti-PSMA scFv-Fc (Fc fusion, Monospecific, bivalent scFv-Fc, VL-VH) DVQITQSPSTLSASVGDRVTITCRASKSISKYLAWYQQKPGKAPKLLIHSGSSLESGVPSRFSGSGSGTEFTLTISSLQPDDFATYYCQQHIEYPWTFGQGTKVEIKGGGGSGGGGSGGGGSGGGGSEVQLLESGGGLVQPGGSLRLSCAASGYTFTDYYIHWVRQAPGKGLEWIGSFNPYNDYTSYADSVKGRATLSVDKSKNTAYLQMNSLRAEDTAVYYCARSDGYYDAMDYWGQGTLVTVSSSEPKSSDKTHTCPPCPAPEAAGAPSVFLFPPKPKDTLMISRTPEVTCVVVDVSHEDPEVKFNWYVDGVEVHNAKTKPREEQYNSTYRVVSVLTVLHQDWLNGKEYKCAVSNKALPAPIEKTISKAKGQPREPQVYTLPPSRDELTKNQVSLTCLVKGFYPSDIAVEWESNGQPENNYKTTPPVLDSDGSFFLYSKLTVDKSRWQQGNVFSCSVMHEALHNHYTQKSLSLSPGK
40 nM	0.0011 s⁻¹	27000 M⁻¹ s⁻¹	8 nM	6 nM	PSMA01012 Anti-PSMA scFv-Fc (Fc fusion, Monospecific, bivalent scFv-Fc, scFv in VL-VH orientation; also called parent construct) DIQMTQSPSAMSASVGDRVTITCRASKSISKYLAWFQQKPGKVPKLRIHSGSTLQSGVPSRFSGSGSGTEFTLTISSLQPEDFATYYCQQHIEYPWTFGQGTKVEIKRGGGGSGGGGSGGGGSQVQLVQSGAEVKKPGASVKVSCKASGYTFTDYYMHWVRQAPGQGLEWMGYFNPYNDYTRYAQKFQGRVTMTRDTSISTAYMELSSLRSDDTAVYYCARSDGYYDAMDYWGQGTTVTVSSSEPKSSDKTHTCPPCPAPEAAGAPSVFLFPPKPKDTLMISRTPEVTCVVVDVSHEDPEVKFNWYVDGVEVHNAKTKPREEQYNSTYRVVSVLTVLHQDWLNGKEYKCAVSNKALPAPIEKTISKAKGQPREPQVYTLPPSRDELTKNQVSLTCLVKGFYPSDIAVEWESNGQPENNYKTTPPVLDSDGSFFLYSKLTVDKSRWQQGNVFSCSVMHEALHNHYTQKSLSLSPGK
